The results in this text go back to US20230414780A1 (VECT HORUS, published 2023).

Changes are numbered by the printed parent chain.

The labels stand for the following.
B1: B8^V1 (VHH)
VHH: EVQLVESGGGVVQPGGSLRLSCAADGEIFSINFMRWYRQAPGKQREWVAGFTRDGSTNYPDSAKGRFTISRDNAKNTVYLQIDSLKPEDTAVYYCYMLDTWGQGTQVTVSS
B2: B8^V12 (VHH)
VHH: B1 VHH with D25S, S30Y
B3: B8^V36 (VHH)
VHH: B1 VHH with D25S, F33V
B4: C5^V13h20 (VHH)
VHH: EVQLVESGGGVVQPGGSLRLSCAASGTDFSINFIRWYRQAPGKGLEFVAGFSATGNTNYADSVKGRFTISRDNAKNAVYLQMNSLRPEDTAVYYCYMLDKWGQGTQVTVSS
B5: VHH A8 (C5^V8) (VHH)
VHH: EVQLVESGGGVVQPGGSLKLSCVASGTDFSINFIRWYRQAPGKQREFVAGFTATGNTNYADSMKGRFTISRDNTKNAVYLQIDSLKPEDTAVYYCYMLAKWGQGTQVTVSS
B6: C5^V30 (VHH)
VHH: B5 VHH with F29K, A99D
B7: C5^V31 (VHH)
VHH: B5 VHH with F29R, A99D
B8: C5^h20 (VHH)
VHH: B4 VHH with S52T
B9: C5^V16h20 (VHH)
VHH: B4 VHH with S52T, M97I
B10: C5^h22 (VHH)
VHH: B4 VHH with L45R, S52T, A77T, V78L
B11: VHH D (H3) (VHH)
VHH: EVQLVESGGGEVQPGGSLKLSCVASGTDFSINFVRWYRQRPGKQREWVAGFTANGDTNYPDSMKGRFTISRDNAKNTVYLQINSLKSEDTAVYYCYMLDNWGQGTQVTVSS
B12: VHH A18 (C5^V18) (VHH)
VHH: B5 VHH with L98V, A99D
B13: VHH A16 (C5^V16) (VHH)
VHH: B5 VHH with M97I, A99D
B14: C5^h9 (VHH)
VHH: B4 VHH with S52T, A77T, V78L
B15: C5^h25 (VHH)
VHH: B4 VHH with Y37V, S52T, A77T, V78L, M82I, N83D
B16: B4a (VHH)
VHH: EVQLVESGGGLVQAGGSLRLSCTASGRTVSNYRMGWFRQTPGKEREFVAAIAWAGGSLTYADSVKGRFTISRDNAKNTVYLQMNSLEPTDTAVYYCKGSRIFPTRDYWGKGTQVTVSS

T5 sequence (Q62351 whole entry, the tested form may be a part): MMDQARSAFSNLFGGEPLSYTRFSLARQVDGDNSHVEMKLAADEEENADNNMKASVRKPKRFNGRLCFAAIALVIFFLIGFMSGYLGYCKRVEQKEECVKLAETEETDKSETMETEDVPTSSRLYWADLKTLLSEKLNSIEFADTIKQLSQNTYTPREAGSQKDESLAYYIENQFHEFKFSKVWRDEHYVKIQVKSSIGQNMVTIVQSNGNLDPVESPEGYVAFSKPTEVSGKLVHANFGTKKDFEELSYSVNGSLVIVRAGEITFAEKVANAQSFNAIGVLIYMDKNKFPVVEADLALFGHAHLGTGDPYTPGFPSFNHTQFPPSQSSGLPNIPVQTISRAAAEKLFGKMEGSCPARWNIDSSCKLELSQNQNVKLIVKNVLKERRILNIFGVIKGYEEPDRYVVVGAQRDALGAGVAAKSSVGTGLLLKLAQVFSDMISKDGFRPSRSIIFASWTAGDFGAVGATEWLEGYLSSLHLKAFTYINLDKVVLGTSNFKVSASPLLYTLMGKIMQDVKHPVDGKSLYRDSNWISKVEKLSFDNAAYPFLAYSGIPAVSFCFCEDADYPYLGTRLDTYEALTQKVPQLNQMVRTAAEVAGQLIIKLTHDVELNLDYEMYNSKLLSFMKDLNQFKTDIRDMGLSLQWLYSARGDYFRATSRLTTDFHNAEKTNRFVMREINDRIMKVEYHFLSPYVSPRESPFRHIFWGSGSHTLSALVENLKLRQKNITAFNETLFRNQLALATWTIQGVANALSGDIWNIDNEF

In one experiment the target is T1, human TfR ectodomain fused to a mouse IgG1 Fc fragment (human, UniProt P02786 89-760).
T1 construct: extracellular domain; ectodomain fused to the N-terminal end of the Fc, made in-house; not shown: mouse IgG1 Fc fragment
T1 sequence (P02786 89-760): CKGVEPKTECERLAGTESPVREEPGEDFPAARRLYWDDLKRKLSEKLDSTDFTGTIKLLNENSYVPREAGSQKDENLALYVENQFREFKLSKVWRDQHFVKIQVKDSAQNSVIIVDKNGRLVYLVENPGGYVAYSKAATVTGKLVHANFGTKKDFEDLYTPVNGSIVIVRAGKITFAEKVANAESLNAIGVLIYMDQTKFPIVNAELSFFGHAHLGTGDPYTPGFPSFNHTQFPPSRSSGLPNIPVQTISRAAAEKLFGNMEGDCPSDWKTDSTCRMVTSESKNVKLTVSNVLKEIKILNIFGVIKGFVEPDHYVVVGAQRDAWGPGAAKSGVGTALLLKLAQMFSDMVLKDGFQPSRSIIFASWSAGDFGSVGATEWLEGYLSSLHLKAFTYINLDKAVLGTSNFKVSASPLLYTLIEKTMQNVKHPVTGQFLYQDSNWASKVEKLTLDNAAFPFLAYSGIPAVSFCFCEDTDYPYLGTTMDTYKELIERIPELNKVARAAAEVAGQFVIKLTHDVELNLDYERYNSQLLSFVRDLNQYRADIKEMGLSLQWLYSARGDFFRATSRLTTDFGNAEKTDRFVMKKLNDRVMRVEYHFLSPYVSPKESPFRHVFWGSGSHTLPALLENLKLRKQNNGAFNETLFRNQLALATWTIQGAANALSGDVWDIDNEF
Description: SPR, kinetic. As to the method: (§1) Binding properties of some VHHs were also evaluated using Surface Plasmon Resonance (SPR) experiments. The human, mouse and rhesus monkey TfR (having respectively GeneBank number NM_003234.2, NM_011638, NC_041755.1) ectodomains were fused to the N-terminal end of a mouse IgG1 Fc fragment and the recombinant proteins were produced and purified in-house. Interaction of VHHs with the receptors was tested using a Biacore T200 (GE Healthcare). Receptors were immobilized on an HC 1500M or a CM5 sensor chip (Xantec) either directly or on an anti-mouse IgG previously immobilized. VHHs were injected over flowcell by using the single-cycle kinetic or the multiple-cycle kinetic methods.
Background: In SPR one partner is held on a chip, and binding of the other changes the refractive index at the surface.
Consider B1, for which the Kd is 6.04 nM; the off-rate constant (koff) (as a rule, the rate constant with which the complex falls apart) is 0.0011 s⁻¹; the on-rate constant (kon) (as a rule, the second-order rate constant of association) turned out to be 183000 M⁻¹ s⁻¹.
The molecule B2 returned a Kd of 0.984 nM, a koff of 0.00169 s⁻¹ and a kon of 1.04e+06 M⁻¹ s⁻¹.
With B3, the Kd was 33.3 nM, the koff was found to be 0.019 s⁻¹ and the association rate constant (kon) was 571000 M⁻¹ s⁻¹.
Consider B4, for which the Kd turned out to be 4.55 nM, the koff turned out to be 0.00357 s⁻¹ and the kon stood at 786000 M⁻¹ s⁻¹.
B5: the Kd came to 94.8 nM, the koff was determined as 0.0558 s⁻¹ and the kon was 504000 M⁻¹ s⁻¹.
Molecule B6 showed a Kd of 94 nM, a koff of 0.03 s⁻¹ and an on-rate constant (kon) of 319000 M⁻¹ s⁻¹.
B7 showed a Kd of 47.5 nM, a koff of 0.0182 s⁻¹ and a kon of 383000 M⁻¹ s⁻¹.
The molecule B8 registered a Kd of 0.985 nM, a koff of 0.00105 s⁻¹ and a kon of 866000 M⁻¹ s⁻¹.
Regarding B9, the Kd was found to be 112 nM, the koff was 0.0399 s⁻¹ and the on-rate (kon) stood at 360000 M⁻¹ s⁻¹.
Taken in the same sequence, the figures for B10 were 8.96 nM, 0.00906 s⁻¹ and 1.5e+06 M⁻¹ s⁻¹.
Molecule B11 showed a Kd of 0.0333 nM, a koff of 3.3e-05 s⁻¹ and a kon of 1.01e+06 M⁻¹ s⁻¹.
Taken in the same sequence, the figures for B12 were 43.3 nM, 0.021 s⁻¹ and 487000 M⁻¹ s⁻¹.
Molecule B13 came in with a Kd of 14.5 nM, a koff of 0.00577 s⁻¹ and a kon of 459000 M⁻¹ s⁻¹.
Take B14: the Kd was 10.6 nM, the off-rate (koff) came out at 0.00582 s⁻¹ and the kon was 549000 M⁻¹ s⁻¹.

For a further experiment, the target named is T2, mouse TfR ectodomain fused to a mouse IgG1 Fc fragment (mouse, UniProt Q62351 89-763).
T2 construct: extracellular domain; not shown: mouse IgG1 Fc fragment
T2 sequence (Q62351 89-763): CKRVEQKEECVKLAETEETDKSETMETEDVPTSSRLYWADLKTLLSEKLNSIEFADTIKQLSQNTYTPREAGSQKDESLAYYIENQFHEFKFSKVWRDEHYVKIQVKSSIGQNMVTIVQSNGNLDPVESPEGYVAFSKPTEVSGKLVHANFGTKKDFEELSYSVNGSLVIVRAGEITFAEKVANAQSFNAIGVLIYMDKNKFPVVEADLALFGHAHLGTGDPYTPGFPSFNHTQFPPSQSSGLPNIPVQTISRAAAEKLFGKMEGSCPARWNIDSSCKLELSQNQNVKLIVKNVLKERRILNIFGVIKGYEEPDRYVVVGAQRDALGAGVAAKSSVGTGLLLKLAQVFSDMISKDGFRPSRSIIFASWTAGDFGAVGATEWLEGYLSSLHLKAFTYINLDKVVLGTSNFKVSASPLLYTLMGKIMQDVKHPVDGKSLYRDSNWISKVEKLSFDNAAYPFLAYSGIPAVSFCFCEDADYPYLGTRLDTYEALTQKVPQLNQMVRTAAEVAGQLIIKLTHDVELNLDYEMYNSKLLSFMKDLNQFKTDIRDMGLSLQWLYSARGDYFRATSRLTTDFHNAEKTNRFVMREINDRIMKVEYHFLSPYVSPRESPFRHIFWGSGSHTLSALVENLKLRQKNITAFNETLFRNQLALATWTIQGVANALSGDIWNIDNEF
Description: SPR, kinetic. Here is the method:
as §1
In turn, B1 yielded a Kd of 1960 nM, a koff of 0.0125 s⁻¹ and a kon of 6510 M⁻¹ s⁻¹.
Consider B9, for which the Kd came to 301 nM, the koff was found to be 0.075 s⁻¹ and the kon came out at 251000 M⁻¹ s⁻¹.
As to B11, the Kd is 15.6 nM, the koff stood at 0.00909 s⁻¹ and the kon is 581000 M⁻¹ s⁻¹.

The target in the next experiment is T3, rhesus monkey TfR ectodomain fused to a mouse IgG1 Fc fragment (rhesus monkey, UniProt I0FKY7 89-760).
T3 construct: extracellular domain; not shown: mouse IgG1 Fc fragment
Description: SPR, kinetic. As to the method: as §1
Regarding B2, the Kd was found to be 12.1 nM, the koff was 0.0119 s⁻¹ and the kon was 997000 M⁻¹ s⁻¹.
On to B6, for which the Kd came to 373 nM, the koff turned out to be 0.192 s⁻¹ and the kon came out at 515000 M⁻¹ s⁻¹.
Taken in the same sequence, the figures for B7 were 234 nM, 0.123 s⁻¹ and 524000 M⁻¹ s⁻¹.

The target of the next experiment is T1, human TfR ectodomain fused to a mouse …. The experiment is described as follows: SPR, at equilibrium. Here is the method: as §1
B3 displayed a Kd of 39.2 nM.
B5 returned a Kd of 84.3 nM.
Turning to B6, the Kd is 112 nM.
Turning to B7, the Kd is 64.8 nM.
Still for that read-out and setting: then B9, with 115 nM; and B12, with 37.8 nM.
For B15, the Kd was 1550 nM.

A further experiment concerns the target T3, rhesus monkey TfR ectodomain fused to a …. The experiment is described as follows: SPR, at equilibrium. Here is the method: as §1
In turn, B2 gave a Kd of 25.1 nM.
Take B3: the Kd is 206 nM.
B6: the Kd was 339 nM.
In turn, B7 displayed a Kd of 242 nM.

The target of a further experiment is T4, human transferrin receptor (hTfR) fused to EGFP, on CHO cells (human, UniProt P02786 1-760).
T4 construct: whole, on cells; also called human TfR; CHO-hTfR-EGFP; not shown: EGFP from pEGFP-C1 vector, fused to the N-terminal (intracellular) end of hTfR
T4 sequence (P02786 whole entry, the tested form may be a part): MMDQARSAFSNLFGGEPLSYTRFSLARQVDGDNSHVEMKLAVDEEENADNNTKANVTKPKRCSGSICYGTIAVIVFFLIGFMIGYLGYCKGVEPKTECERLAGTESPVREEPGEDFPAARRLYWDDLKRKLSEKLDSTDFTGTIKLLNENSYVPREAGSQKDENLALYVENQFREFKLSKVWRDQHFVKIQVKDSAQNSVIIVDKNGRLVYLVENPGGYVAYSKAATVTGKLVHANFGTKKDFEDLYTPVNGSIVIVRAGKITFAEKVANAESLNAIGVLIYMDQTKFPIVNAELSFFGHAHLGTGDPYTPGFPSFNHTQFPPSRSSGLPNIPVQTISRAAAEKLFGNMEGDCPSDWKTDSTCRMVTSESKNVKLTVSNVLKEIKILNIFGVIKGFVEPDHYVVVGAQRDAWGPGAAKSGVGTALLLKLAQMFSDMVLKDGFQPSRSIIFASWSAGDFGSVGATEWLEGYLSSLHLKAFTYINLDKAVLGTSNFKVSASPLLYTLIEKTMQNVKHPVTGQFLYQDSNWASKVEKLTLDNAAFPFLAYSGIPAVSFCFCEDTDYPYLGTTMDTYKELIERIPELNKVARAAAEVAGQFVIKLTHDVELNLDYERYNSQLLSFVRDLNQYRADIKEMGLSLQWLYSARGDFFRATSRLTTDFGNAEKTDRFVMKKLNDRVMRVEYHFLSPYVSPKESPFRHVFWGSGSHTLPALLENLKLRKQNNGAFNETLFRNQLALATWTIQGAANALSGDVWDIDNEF
Description: apparent Kd, flow cytometry, CHO cells. Here is the method:
(§2) The binding properties of VHHs with affinity for the TfR from different species (i.e., human (h), mouse (m) and rhesus monkey (rh)) were tested using flow cytometry, and apparent affinities (Kd app) were determined. All experiments were performed in 96 well plates using 2×10⁵ cells/well, at 4° C. with shaking. CHO cell lines expressing the hTfR, mTfR or rhTfR fused to EGFP were saturated with PBS/BSA 2% solution during 30 min to avoid nonspecific binding, followed by incubation with purified VHHs at increasing concentrations for 1 hr. After one wash in PBS/BSA 2%, cells were incubated for 1 hr with an anti-6His tag antibody (mouse), washed twice with PBS/BSA 2%, and incubated for 1 hr with an Alexa647-conjugated anti-mouse secondary antibody. After two last washes in PBS/BSA 2%, cells were fixed by incubation for 15 min with PBS/PFA 2%, washed once with PBS and finally resuspended in PBS. Fluorescence levels were assessed using an Attune NxT flow cytometer (Thermo Fisher Scientific). Experimental data were fitted with GraphPad Prism® software using a nonlinear fit to determine the apparent Kd constants. […] Table 5 hereafter summarizes apparent Kd obtained for the tested VHHs.
B1: the Kd amounted to 192 nM.
With B2, the Kd came out at 4.7 nM.
Take B3: the Kd came out at 27 nM.
Take B4: the Kd was 3.8 nM.
On to B5, for which the Kd was determined as 23 nM.
With B6, the Kd worked out at 31 nM.
The same measure, in the same setting: then B7, with 11 nM.
Still for that read-out and setting: then B8, with 4.1 nM; and B9, with 23 nM.
Turning to B10, the Kd worked out at 4.9 nM.
With B11, the Kd was determined as 1.9 nM.
For B12, the Kd worked out at 12 nM.
Regarding B13, the Kd was determined as 4.7 nM.
For B15, the Kd was found to be 777 nM.
The same measure, in the same setting: with B14 the figure was 6.1 nM; with B16, 692 nM.

The next experiment concerns the target T5, mouse transferrin receptor (mTfR) fused to EGFP, on CHO cells (mouse, UniProt Q62351 1-763).
T5 construct: whole, on cells; also called mouse TfR; CHO-mTfR-EGFP; not shown: EGFP
Description: apparent Kd, flow cytometry, CHO cells. Here is the method: as §2
(In general: Flow cytometry measures light scatter and fluorescence of single cells or particles in a stream.)
Regarding B1, the Kd came to 313 nM.
The same measure, in the same setting: then B2, with 743 nM; and B3, with 891 nM; and B4, with 246 nM.
The same measure, in the same setting: with B5 the figure was 427 nM; with B6, 696 nM.
For the molecule B7, the Kd stood at 445 nM.
For B8, the Kd turned out to be 22 nM.
Turning to B9, the Kd was 622 nM.
As for B10, the Kd was found to be 602 nM.
Regarding B11, the Kd stood at 56 nM.
In the case of B12, the Kd was 416 nM.
For B13, the Kd stood at 131 nM.
With B15, the Kd came to 755 nM.
Take B14: the Kd was 431 nM.
Take B16: the Kd was 409 nM.

The next experiment addresses T6, rhesus monkey transferrin receptor (rhTfR) fused to EGFP, on CHO cells (rhesus monkey).
T6 construct: whole, on cells; also called rhesus monkey TfR
Description: apparent Kd, flow cytometry, CHO cells. Here is the method: as §2
With B1, the Kd turned out to be 138 nM.
Still for that read-out and setting: with B2 the figure was 6.9 nM; with B3, 130 nM; with B4, 549 nM.
Regarding B5, the Kd turned out to be 494 nM.
In the case of B6, the Kd stood at 362 nM.
For B7, the Kd was 256 nM.
For B8, the Kd came out at 40 nM.
The same measure, in the same setting: then B9, with 793 nM; and B10, with 755 nM; and B11, with 1.5 nM.
On the same count and under the same terms, then B12, with 481 nM; and B13, with 425 nM; and B14, with 493 nM.
Same read-out and setting: then B16, with 479 nM.
